The source of these data is US7657380.

Assay [1] deals with EGFR extracellular domain (R&D Systems) (UniProt P00533 25-645, limits assumed). The experiment in a line: SPR, full length antibody over EGFR chip. Background: In SPR one partner is held on a chip, and binding of the other changes the refractive index at the surface.
Assay [2] deals with T1, CD30 fused to the Fc region of IgG1 (R&D Systems) (UniProt P28908 19-379).
T1 sequence (looked up): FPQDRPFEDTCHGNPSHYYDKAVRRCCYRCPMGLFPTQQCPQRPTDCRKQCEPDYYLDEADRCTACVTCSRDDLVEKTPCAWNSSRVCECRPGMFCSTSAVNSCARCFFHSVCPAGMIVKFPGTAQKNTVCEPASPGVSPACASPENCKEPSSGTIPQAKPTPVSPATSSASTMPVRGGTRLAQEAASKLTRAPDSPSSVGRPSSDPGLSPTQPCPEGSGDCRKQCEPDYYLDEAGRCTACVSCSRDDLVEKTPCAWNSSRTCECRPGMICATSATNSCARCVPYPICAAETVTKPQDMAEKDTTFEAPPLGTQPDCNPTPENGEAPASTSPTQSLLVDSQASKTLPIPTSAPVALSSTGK
As to the kind of experiment: SPR, CD30-Fc on Protein A chip.

Assay [3] deals with T2, human CD30 (commercial, conjugated to digoxigenin) (human, UniProt P28908 19-379, limits assumed, conjugated to digoxigenin (DIG)).
T2 sequence (looked up): T1 sequence (looked up)
As to the kind of experiment: AlphaScreen competition vs biotin-WT AC10. A general note: Bead proximity is the source of the signal in Alpha formats.

Substitutions are numbered along the chain they refer to.

By Kd is commonly meant the equilibrium constant for the complex coming apart. Low values mean a tighter complex, high ones a looser complex. What is called IC50 is the midpoint of a concentration-inhibition curve. A higher IC50 goes with weaker potency.

B1: C225 L2/H5 full length antibody (antibody, IgG1, V domains shown)
VH: QVQLQQSGPGLVKPSQTLSLTCTVSGFSLTNYGVHWVRQAPGKGLEWLGVIWSGGNTDYNTPLTSRLTINKDNSKSQVVLQMNSLRAEDTAVYYCARALTYYDYEFAYWGQGTLVTVSS
VL: DILLTQSPATLSLSPGERVTLSCRASQSIGTNIHWYQQKPDQSPKLLIKYASESISGIPSRFSGSGSGTDFTLTISSLQPEDFADYYCQQNNNWPTTFGAGTKLEIK
As for B1, the binding result in assay [1] was “binds”.

B2: C225 L2/H8 full length antibody (antibody, IgG1, V domains shown)
VH: QVQLVESGGGLVQPGRSLRLSCAVSGFSLTNYGVHWVRQAPGKGLEWVSVIWSGGNTDYNTSVKGRFTISKDNSKSTVYLQMNSLRAEDTAVYYCARALTYYDYEFAYWGQGTLVTVSS
VL: B1 VL
With B2, in assay [1], the binding result was “binds”.

B3: C225 L3/H6 full length antibody (antibody, IgG1, V domains shown)
VH: B1 VH with L48V, P62S, L63V, T64K, S65G, L67F, N70S, V79Y
VL: B1 VL with A9S, T10S, L13A, P15V, E17D, L21I, S22T, P80A, F83V, D85V
B3: in assay [1], the binding result is reported as “binds”.

B4: C225 L3/H7 full length antibody (antibody, IgG1, V domains shown)
VH: QVQLQQSGPGLVKPSQTLSLTCTVSGFSLTNYGVHWVRQPPGKGLEWIGVIWSGGNTDYNTSLKSRVTISKDNSKSQVSLKLSSVTAADTAVYYCARALTYYDYEFAYWGQGTLVTVSS
VL: B1 VL with A9S, T10S, L13A, P15V, E17D, L21I, S22T, P80A, F83V, D85V
Regarding B4, the binding result in assay [1] is “binds”.

B5: C225 L0/H3 full length antibody (antibody, IgG1, V domains shown)
VH: B1 VH with P62S, T64K, N70S
VL: not shown
As to B5, the binding result in assay [1] is on record as “binds”.

B6: C225 L3/H8 full length antibody (antibody, IgG1, V domains shown)
VH: B2 VH
VL: B1 VL with A9S, T10S, L13A, P15V, E17D, L21I, S22T, P80A, F83V, D85V
Consider B6, for which the binding result in assay [1] was “binds”.

B7: C225 L3/H5 full length antibody (antibody, IgG1, V domains shown)
VH: B1 VH
VL: B1 VL with A9S, T10S, L13A, P15V, E17D, L21I, S22T, P80A, F83V, D85V
On to B7, for which the binding result in assay [1] is “binds”.

B8: C225 L3/H4 full length antibody (antibody, IgG1, V domains shown)
VH: QVQLQQSGPGLVKPSQTLSLTCTVSGFSLTNYGVHWVRQAPGKGLEWLGVIWSGGNTDYNTSLKSRLTISKDNSKSQVVLTMTNMDPVDTATYYCARALTYYDYEFAYWGQGTLVTVSS
VL: B1 VL with A9S, T10S, L13A, P15V, E17D, L21I, S22T, P80A, F83V, D85V
As for B8, the binding result in assay [1] is “binds”.

B9: C225 L4/H3 full length antibody (antibody, IgG1, V domains shown)
VH: B1 VH with P62S, T64K, N70S
VL: DILLTQSPAFLSVTPGEKVTITCRASQSIGTNIHWYQQKPDQSPKLLIKYASESISGIPSRFSGSGSGTDFTLTINSLEAEDAATYYCQQNNNWPTTFGAGTKLEIK
With B9, the binding result in assay [1] is on record as “binds”.

B10: C225 L0/H7 full length antibody (antibody, IgG1, V domains shown)
VH: B4 VH
VL: not shown
With B10, in assay [1], the binding result is “binds”.

B11: C225 L2/H7 full length antibody (antibody, IgG1, V domains shown)
VH: B4 VH
VL: B1 VL
Regarding B11, the binding result in assay [1] was “binds”.

B12: C225 L3/H3 full length antibody (antibody, IgG1, V domains shown)
VH: B1 VH with P62S, T64K, N70S
VL: B1 VL with A9S, T10S, L13A, P15V, E17D, L21I, S22T, P80A, F83V, D85V
B12: the binding result in assay [1] was “binds”.

B13: C225 L0/H4 full length antibody (antibody, IgG1, V domains shown)
VH: B8 VH
VL: not shown
B13: the binding result in assay [1] is recorded as “binds”.

B14: C225 L0/H6 full length antibody (antibody, IgG1, V domains shown)
VH: B1 VH with L48V, P62S, L63V, T64K, S65G, L67F, N70S, V79Y
VL: not shown
Take B14: the binding result in assay [1] is reported as “binds”.

B15: C225 L2/H6 full length antibody (antibody, IgG1, V domains shown)
VH: B1 VH with L48V, P62S, L63V, T64K, S65G, L67F, N70S, V79Y
VL: B1 VL
As to B15, the binding result in assay [1] was “binds”.

B16: C225 L0/H5 full length antibody (antibody, IgG1, V domains shown)
VH: B1 VH
VL: not shown
For B16, the binding result in assay [1] is on record as “binds”.

B17: AC10 H3/L0 full length antibody (antibody, V domains shown)
VH: QIQLVQSGPEVKKPGASVKVSCKASGYTFTDYYITWVRQAPGQGLEWMGWIYPGSGNTKYNEKFQGRFVFSVDTSASTAYLQISSLKAEDTAVYFCANYGNYWFAYWGQGTLVTVSS
VL: DIVLTQSPASLAVSLGQRATISCKASQSVDFDGDSYMNWYQQKPGQPPKVLIYAASNLESGIPARFSGSGSGTDFTLNIHPVEEEDAATYYCQQSNEDPWTFGGGTKLEIK
For B17, in assay [2], the “Fold KD vs WT” value stood at 1.1 fold and the Kd worked out at 3.08 nM. Besides, in assay [3], the “Fold IC50 vs WT” value was 0.51 fold and the IC50 was 6.18 nM.

B18: AC10 H2/L0 full length antibody (antibody, V domains shown)
VH: QIQLVESGGGLVKPGGSLRLSCAASGYTFTDYYITWVRQAPGQGLEWMGWIYPGSGNTKYNEKFQGRVTMTVDTSTSTAYMELSSLRSEDTAVYFCANYGNYWFAYWGQGTLVTVSS
VL: B17 VL
For the molecule B18, in assay [2], the “Fold KD vs WT” value amounted to 0.42 fold and the Kd was determined as 8 nM. In addition, in assay [3], the “Fold IC50 vs WT” value was 0.16 fold and the IC50 worked out at 19.4 nM.

B19: AC10 H3/L2 full length antibody (antibody, V domains shown)
VH: B17 VH
VL: DIVLTQSPSSLSASVGDRVTITCRASQSVDFDGDSYMNWYQQKPGQPPKVLIYAASNLESGIPARFSGSGSGTDFTLTISSLQPEDFATYYCQQSNEDPWTFGGGTKVEIK
Turning to B19, in assay [2], the “Fold KD vs WT” value came to 1.19 fold and the Kd stood at 2.86 nM. Moreover, in assay [3], the “Fold IC50 vs WT” value was 0.48 fold and the IC50 was 6.57 nM.

B20: AC10 H3/L1 full length antibody (antibody, V domains shown)
VH: B17 VH
VL: B19 VL with S9A, S10T, A13L, V15P, D17E, V19A, I21L, T22S
Consider B20, for which, in assay [2], the “Fold KD vs WT” value was 1.39 fold and the affinity, expressed as Kd, was 2.44 nM. Also, in assay [3], the “Fold IC50 vs WT” value amounted to 0.52 fold and the concentration for half-maximal inhibition (IC50) was 6.09 nM.

B21: AC10 H0/L3 full length antibody (antibody, V domains shown)
VH: QIQLQQSGPEVVKPGASVKISCKASGYTFTDYYITWVKQKPGQGLEWIGWIYPGSGNTKYNEKFKGKATLTVDTSSSTAFMQLSSLTSEDTAVYFCANYGNYWFAYWGQGTQVTVSA
VL: B17 VL with A9D, Q17E, S22N, N78T, H80N, P81S, V82L, E84A, L108V
Turning to B21, in assay [2], the “Fold KD vs WT” value was 1.13 fold and binding was characterised by a dissociation constant (Kd) of 3 nM. In assay [3], the “Fold IC50 vs WT” value worked out at 0.69 fold and the IC50 was 4.61 nM.

B22: AC10 H2/L1 full length antibody (antibody, V domains shown)
VH: B18 VH
VL: B19 VL with S9A, S10T, A13L, V15P, D17E, V19A, I21L, T22S
For B22, in assay [2], the “Fold KD vs WT” value amounted to 0.36 fold and the Kd worked out at 9.49 nM. In assay [3], the “Fold IC50 vs WT” value was found to be 0.06 fold and the IC50 is 55.1 nM.

B23: AC10 H2/L2 full length antibody (antibody, V domains shown)
VH: B18 VH
VL: B19 VL
On to B23, for which, in assay [2], the “Fold KD vs WT” value came to 0.57 fold and the Kd is 5.95 nM. In assay [3], the “Fold IC50 vs WT” value stood at 0.06 fold and the IC50 was 49.2 nM.

B24: AC10 H0/L2 full length antibody (antibody, V domains shown)
VH: B21 VH
VL: B19 VL
Regarding B24, in assay [2], the “Fold KD vs WT” value was 0.97 fold and the Kd stood at 3.48 nM. Moreover, in assay [3], the “Fold IC50 vs WT” value came out at 0.41 fold and the IC50 was found to be 7.81 nM.

B25: AC10 H0/L1 full length antibody (antibody, V domains shown)
VH: B21 VH
VL: B19 VL with S9A, S10T, A13L, V15P, D17E, V19A, I21L, T22S
For the molecule B25, in assay [2], the “Fold KD vs WT” value amounted to 1.03 fold and the Kd amounted to 3.29 nM. Moreover, in assay [3], the “Fold IC50 vs WT” value was 0.61 fold and the IC50 was found to be 5.19 nM.

B26: C225 L0/H8 full length antibody (antibody, IgG1, V domains shown)
VH: B2 VH
VL: not shown
As to B26, the binding result in assay [1] was “binds”.
